What was measured:
Assay in all cases: EMSA
[1] = tested on: LARP1 796-1019 cluster 7 phosphomimetic (Homo sapiens); details: tRNA and BSA competitors; enhanced relative to WT 796-1019; m7Gppp cap; EMSA: 20 mM Tris-HCl pH 8, 150 mM NaCl, 10% glycerol, 1 mM DTT, 0.5 ug tRNA, 1 ug BSA in 10 ul; on ice 30 min; 7-8% native 0.5x TBE gel at 4 C; RNA <=200 pM
[2] = tested on: LARP1 665-947 cluster 6 full phosphomimetic (10 sites) (Homo sapiens); details: tRNA and BSA competitors; stated 4.99-fold reduction; m7Gppp cap; EMSA: 20 mM Tris-HCl pH 8, 150 mM NaCl, 10% glycerol, 1 mM DTT, 0.5 ug tRNA, 1 ug BSA in …; on ice 30 min; 7-8% native 0.5x TBE gel at 4 C; RNA <=200 pM
[3] = tested on: LARP1 665-947 cluster 6 partial phosphomimetic (5 sites) (Homo sapiens); details: tRNA and BSA competitors; m7Gppp cap; EMSA: 20 mM Tris-HCl pH 8, 150 mM NaCl, 10% glycerol, 1 mM DTT, 0.5 ug tRNA, 1 ug BSA in 10 ul; on ice 30 min; 7-8% native 0.5x TBE gel at 4 C; RNA <=200 pM

Which Kd [1] does the source give for m7G-RPS6-UTR (capped RPS6 20-mer) here?
Its Kd is 44 nM.

And the Kd [2]?
Its Kd is 2840 nM.

What about the Kd [3] of the same substance?
Its Kd is 902 nM.

Reference: publication PMC8034618
